Article PMC3416860, “TC10 Is Regulated by Caveolin in 3T3-L1 Adipocytes” (PLoS ONE, 2012)

Key:
GST-TC10 [1] = target: T1, GST-TC10 (Homo sapiens, UniProt P17081); experiment: radioligand binding to GST-fusion on glutathione-agarose; details: 10 mM MgCl2, pH 7.5, room temperature, labelled compound
T1 construct: gene RHOQ; GST fusion (GST kept), expressed in E. coli Rosetta-gami (DE3), glutathione-agarose purified; plasmid from I. Macara

[2] = target: myc-Caveolin 1 wild-type (pKMyc-Caveolin 1) (UniProt Q03135); experiment: co-IP; COS-1 cells co-transfected with myc-Caveolin 1 and HA-TC10 plasmids; lysed in HNTG buffer (50 mM HEPES pH 7.4, 150 mM NaCl, 10% glycerol, 1% Triton X-100); immunoprecipitated with anti-myc antibodies and Protein A/G beads, blotted for HA
GST-TC10 [3] = target: T2, GST-TC10 (human, UniProt P17081 1-205); experiment: pull-down; purified MBP-Caveolin 1(1-99) and GST-TC10 incubated with GDP overnight at 4 C; glutathione agarose 1 h, washed, eluted in SDS sample buffer; blots with anti-GST or anti-MBP; details: both partners purified
T2 construct: TC10 (RhoQ); Expression plasmid obtained from Dr. Ian Macara; Used as purified (with endogenous GDP) or preincubated with GDP or a nonhydrolyzable GTP analog; also called TC10-GDP; source: E. coli Rosetta-gami (DE3), purified (glutathione-agarose)
T2 sequence (P17081 whole entry): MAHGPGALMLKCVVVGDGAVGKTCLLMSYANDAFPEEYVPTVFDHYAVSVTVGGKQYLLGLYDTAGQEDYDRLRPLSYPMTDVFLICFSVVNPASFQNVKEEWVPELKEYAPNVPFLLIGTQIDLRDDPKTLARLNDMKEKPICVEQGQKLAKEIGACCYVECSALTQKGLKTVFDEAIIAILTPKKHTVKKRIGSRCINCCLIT

GST-TC10 [4] = target: T2, GST-TC10; experiment: pull-down; GST-TC10 on glutathione-agarose beads, preincubated with nucleotides as indicated (GDP or a nonhydrolyzable GTP analog), used to precipitate proteins from a 3T3-L1 adipocyte lysate; blot with anti-Caveolin antibodies; details: one partner purified

T1 sequence (P17081 whole entry, the tested form may be a part): as the sequence (P17081 whole entry) above

## Nc1nc2c(ncn2[C@@H]2O[C@H](COP(=O)(O)OP(=O)(O)OP(O)(O)=S)[C@@H](O)[C@H]2O)c(=O)[nH]1 [GTPγS]
GST-TC10 [1]
  radioligand binding to GST-fusion on glutathione-agarose: incubated radiolabeled GTPγS with recombinant GST, GST-TC10 or GST-Cdc42

## HA-TC10 T31N (pKH3-TC10 T31N), dominant-interfering mutant (natural protein)
[2]
  fold interaction against the constitutively active allele (Q75L): > 10 fold

## HA-TC10 Y37A/Y46A (pKH3-TC10 Y37A/Y46A) (natural protein)
[2]
  percent decrease of co-immunoprecipitation against wild-type TC10: > 75%

B1: MBP-Caveolin 1(1-99) (domain or fragment, UniProt Q03135 1-99, looked up)
chain: MSGGKYVDSEGHLYTVPIREQGNIYKPNNKAMADELSEKQVYDAHTKEIDLVNRDPKHLNDDVVKIDFEDVIAEPEGTHSFDGIWKASFTTFTVTKYWF
notes: Caveolin 1, the first 99 amino acids; The vector may add further tags and a TEV site; source: E. coli Rosetta-gami (DE3), purified (amylose resin)
GST-TC10 [3]
  fold precipitated with TC10-GDP against GTP analog bound TC10: > 4 fold

B2: Caveolin 1, endogenous in 3T3-L1 adipocytes (natural protein, mouse (endogenous in 3T3-L1), UniProt P49817 1-178, looked up)
chain: MSGGKYVDSEGHLYTVPIREQGNIYKPNNKAMADEVTEKQVYDAHTKEIDLVNRDPKHLNDDVVKIDFEDVIAEPEGTHSFDGIWKASFTTFTVTKYWFYRLLSTIFGIPMALIWGIYFAILSFLHIWAVVPCIKSFLIEIQCISRVYSIYVHTFCDPLFEAIGKIFSNIRISTQKEI
notes: Caveolin 1, endogenous, detected with anti-Caveolin antibodies; source: endogenous, 3T3-L1 adipocyte lysate
GST-TC10 [4]
  fold enhancement of the interaction after GDP binding: ~2 fold
